# Source: PMC8228455, “Redox Regulation of the Quorum-sensing Transcription Factor AgrA by Coenzyme A”
# T1: AgrA (6xHis-SaAgrA) (Staphylococcus aureus, UniProt Q5HEG2 1-238)
# T1 sequence: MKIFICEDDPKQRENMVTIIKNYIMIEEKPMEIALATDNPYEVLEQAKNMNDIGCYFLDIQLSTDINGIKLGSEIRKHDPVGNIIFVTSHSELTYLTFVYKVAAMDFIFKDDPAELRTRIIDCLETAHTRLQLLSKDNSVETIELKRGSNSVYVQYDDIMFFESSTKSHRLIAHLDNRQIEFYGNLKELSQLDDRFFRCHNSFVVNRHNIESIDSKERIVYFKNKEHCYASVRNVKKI
# B1: P2 promoter (dsDNA)
# DNA 1: TAACAGTTAAGTATTTATTTCCTACAGTTAGGCA
# DNA 2: TGCCTAACTGTAGGAAATAAATACTTAACTGTTA
# Target: T1, AgrA (6xHis-SaAgrA)
# Assay: SPR; non-CoAlated; ka 5.75e3 1/Ms, kd 1.01e-2 1/s; SPR (Biacore 2000, SA chip, ~500 RU DNA): 20 mM HEPES pH 7.6, 250 mM KCl, 10% glycerol; 30 uL/min; temperature not stated; 1:1 Langmuir fit
# Conditions: protein: recombinant; tags: 6xHis; chain copies: 2; label: 5' biotin (immobilized on SA chip); blunt
binder,measurement,value
B1,Kd,1750 ± 580 nM
